The source of these data is publication doi:10.1101/2020.12.29.424711 (bioRxiv, 2020).

The target in assay [1] is SARS-CoV-2 receptor binding domain (RBD), as crystallised (SARS-CoV-2, UniProt P0DTC2). The experiment in a line: crystal structure.
Assay [2] has as its target SARS-CoV-2 RBD, as used in Octet epitope binning and as SPR analyte (SARS-CoV-2, UniProt P0DTC2). The assay can be described thus: BLI.

B1: ION_300 Fab (Fab, V domains shown)
VH: QVQLVQSGAEVKKPGESLKISCKGSGYSFTSYWIGWVRQMPGKGLEWMGIIYPGDSDTRYSPSFQGQVTISADKSISTAYLQWSSLKASDTAMYYCARHPSPYYYGSGSYSGGFDYWGQGTLVTVSS
VL: DIVMTQSPGTLSLSPGERATLSCRASQSVSSSYLAWYQQKPGQAPRLLIYGASTRATGIPARFSGSGSGTEFTLTISSLQSEDFAVYYCQQYDNWPLMHTFGQGTKLEIK
For B1, in assay [1], the binding result was “binds”.

B2: ION_300 IgG1 (antibody, V domains shown)
VH: B1 VH
VL: B1 VL
Take B2: the binding result in assay [2] is listed as “binds”.

B3: ION_360 Fab (Fab, V domains shown)
VH: EVQLVQSGGGLVKPGGSLRLSCAASGITVSSNYMSWVRQAPGKGLEWVSVIYSGGSTYYADSVKGRFTISRDNSKNTLYLQMNSLRAEDTAVYYCARGEGGSIVGVTSDYWGQGTLVTVSS
VL: DIQMTQSPSSLSASVGDRVTITCRASQSISRYLNWYQQKPGKAPKLLIYAASSLQSGVPSRFSGSGSETEFTLTISSLHPDDFATYYCQQSYSTLPYTFGQGTKVEIK
Consider B3, for which the binding result in assay [1] is on record as “binds”.
